test system: Escherichia coli TOP10; assay: shrunken log2 fold change of peptide-encoding DNA abundance (4.5 h post-induction vs induction); higher = less antimicrobial activity (less host growth inhibition); conditions: time post-induction: 4.5 h; library: site-saturation at positions 5, 18, 19, 20
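Further: peptides expressed intracellularly from a pBAD plasmid library in pooled LB shake-flask culture, induced with 0.3% L-arabinose, DNA abundance read by NGS, three biological replicates, DESeq2 with apeglm shrinkage.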

Sequence	shrunken log2 fold change
RRIRTRPPRLPRPRPRPVNAPRP	-0.189
RRIRARPPRLPRPRPRPEWDPRP	1.13
RRIRHRPPRLPRPRPRPWLLPRP	-0.397
RRIRKRPPRLPRPRPRPMAEPRP	0.208
RRIRSRPPRLPRPRPRPDKWPRP	0.858
RRIRMRPPRLPRPRPRPVNPPRP	0.00934
RRIRKRPPRLPRPRPRPQYMPRP	0.0201
RRIRWRPPRLPRPRPRPDHGPRP	-0.104
RRIRDRPPRLPRPRPRPVKMPRP	-0.0606
RRIRFRPPRLPRPRPRPQQPPRP	-0.00359
RRIRWRPPRLPRPRPRPTLIPRP	0.0335
RRIRSRPPRLPRPRPRPDVRPRP	0.0647
RRIRNRPPRLPRPRPRPLCRPRP	-0.372
RRIRRRPPRLPRPRPRPATAPRP	0.479
RRIRARPPRLPRPRPRPCKWPRP	0.146
RRIRQRPPRLPRPRPRPEERPRP	0.104
RRIRCRPPRLPRPRPRPDMPPRP	-0.253
RRIRRRPPRLPRPRPRPIKSPRP	-0.254
RRIRARPPRLPRPRPRPRKQPRP	0.301
RRIRVRPPRLPRPRPRPYADPRP	-0.543
RRIRMRPPRLPRPRPRPATIPRP	0.23
RRIRRRPPRLPRPRPRPPNGPRP	0.407
RRIRSRPPRLPRPRPRPSATPRP	0.168
RRIRPRPPRLPRPRPRPEKEPRP	-0.143
RRIRVRPPRLPRPRPRPVQRPRP	0.167

Sequence	shrunken log2 fold change
RRIRLRPPRLPRPRPRPAYHPRP	-0.249
RRIRPRPPRLPRPRPRPMMDPRP	0.0321
RRIRLRPPRLPRPRPRPTEAPRP	-0.00104
RRIRPRPPRLPRPRPRPAEFPRP	-0.0142
RRIRRRPPRLPRPRPRPDFVPRP	-0.0983
RRIRSRPPRLPRPRPRPVCSPRP	0.0822
RRIRVRPPRLPRPRPRPALFPRP	0.175
RRIRQRPPRLPRPRPRPQDHPRP	-0.408
RRIRCRPPRLPRPRPRPVNGPRP	1.74
RRIRVRPPRLPRPRPRPVAGPRP	0.0748
RRIRFRPPRLPRPRPRPKDTPRP	0.0365
RRIRDRPPRLPRPRPRPPQDPRP	0.811
RRIRVRPPRLPRPRPRPWQFPRP	-0.0175
RRIRSRPPRLPRPRPRPPFDPRP	0.244
RRIRARPPRLPRPRPRPLKEPRP	0.218
RRIRMRPPRLPRPRPRPQGEPRP	-0.0117
RRIRKRPPRLPRPRPRPSYQPRP	-0.52
RRIRWRPPRLPRPRPRPAHCPRP	-0.0174
RRIRWRPPRLPRPRPRPPGSPRP	0.333
RRIRTRPPRLPRPRPRPACGPRP	0.282
RRIRDRPPRLPRPRPRPKQGPRP	0.0662
RRIRKRPPRLPRPRPRPNTDPRP	-0.261
RRIRYRPPRLPRPRPRPVASPRP	-0.163
RRIRVRPPRLPRPRPRPCAIPRP	-0.379
RRIRRRPPRLPRPRPRPHRMPRP	-0.203

Sequence	shrunken log2 fold change
RRIRARPPRLPRPRPRPEQMPRP	1.06
RRIRYRPPRLPRPRPRPVVCPRP	-0.408
RRIRTRPPRLPRPRPRPRFLPRP	0.903
RRIRSRPPRLPRPRPRPTCDPRP	0.109
RRIRVRPPRLPRPRPRPCCHPRP	-0.217
RRIRRRPPRLPRPRPRPNIPPRP	-0.24
RRIRQRPPRLPRPRPRPGSNPRP	0.127
RRIRQRPPRLPRPRPRPLWKPRP	-0.0262
RRIRNRPPRLPRPRPRPGWKPRP	-0.00965
RRIRRRPPRLPRPRPRPDIRPRP	-0.294
RRIRHRPPRLPRPRPRPNQMPRP	-0.0904
RRIRPRPPRLPRPRPRPYGWPRP	-0.248
RRIRMRPPRLPRPRPRPQTPPRP	2.18
RRIRNRPPRLPRPRPRPFPRPRP	0.0857
RRIRRRPPRLPRPRPRPDSIPRP	-0.199
RRIRVRPPRLPRPRPRPFGEPRP	0.092
RRIRWRPPRLPRPRPRPMVGPRP	0.171
RRIRLRPPRLPRPRPRPCSLPRP	0.00822
RRIRSRPPRLPRPRPRPCIKPRP	-0.0801
RRIRCRPPRLPRPRPRPRYTPRP	-0.37
RRIRPRPPRLPRPRPRPWECPRP	-0.0846
RRIRIRPPRLPRPRPRPSSWPRP	0.025
RRIRLRPPRLPRPRPRPREWPRP	-0.0315
RRIRCRPPRLPRPRPRPPVLPRP	-0.169
RRIRTRPPRLPRPRPRPNSRPRP	-0.0848

Sequence	shrunken log2 fold change
RRIRRRPPRLPRPRPRPPNMPRP	0.402
RRIRYRPPRLPRPRPRPKIPPRP	-0.21
RRIRSRPPRLPRPRPRPSMPPRP	-0.706
RRIRTRPPRLPRPRPRPQFGPRP	-0.00643
RRIRGRPPRLPRPRPRPNVYPRP	0.205
RRIRTRPPRLPRPRPRPWFAPRP	0.0386
RRIRIRPPRLPRPRPRPYWTPRP	-0.18
RRIRIRPPRLPRPRPRPKVPPRP	0.167
RRIRTRPPRLPRPRPRPDGKPRP	-0.41
RRIRHRPPRLPRPRPRPELVPRP	0.177
RRIRARPPRLPRPRPRPYWTPRP	-0.16
RRIRHRPPRLPRPRPRPPLPPRP	0.476
RRIRMRPPRLPRPRPRPSSFPRP	-0.0557
RRIRCRPPRLPRPRPRPDSVPRP	-0.894
RRIRPRPPRLPRPRPRPFTFPRP	-0.189
RRIRNRPPRLPRPRPRPPDLPRP	0.101
RRIRDRPPRLPRPRPRPFLNPRP	-0.243
RRIRQRPPRLPRPRPRPRDHPRP	0.423
RRIRGRPPRLPRPRPRPSQAPRP	0.612
RRIRWRPPRLPRPRPRPLYVPRP	-0.836
RRIRARPPRLPRPRPRPEQYPRP	-0.0243
RRIRQRPPRLPRPRPRPDLTPRP	0.00424
RRIRTRPPRLPRPRPRPQDMPRP	-0.48
RRIRERPPRLPRPRPRPEYMPRP	-0.0257
RRIRIRPPRLPRPRPRPVANPRP	-0.109

Sequence	shrunken log2 fold change
RRIRPRPPRLPRPRPRPSDGPRP	-0.26
RRIRHRPPRLPRPRPRPFIVPRP	-0.319
RRIRGRPPRLPRPRPRPGADPRP	1.48
RRIRIRPPRLPRPRPRPNQIPRP	-0.713
RRIRHRPPRLPRPRPRPYPWPRP	-0.113
RRIRNRPPRLPRPRPRPHQWPRP	-0.0998
RRIRARPPRLPRPRPRPNLRPRP	0.022
RRIRHRPPRLPRPRPRPVENPRP	-0.0355
RRIRHRPPRLPRPRPRPCEFPRP	-0.324
RRIRHRPPRLPRPRPRPFDRPRP	-0.172
RRIRERPPRLPRPRPRPYFPPRP	-0.307
RRIRDRPPRLPRPRPRPISWPRP	0.0803
RRIRLRPPRLPRPRPRPNPYPRP	-0.0545
RRIRFRPPRLPRPRPRPFVMPRP	-1.05
RRIRPRPPRLPRPRPRPWRAPRP	0.185
RRIRFRPPRLPRPRPRPHELPRP	0.0835
RRIRNRPPRLPRPRPRPDHWPRP	0.0703
RRIRTRPPRLPRPRPRPRKWPRP	0.215
RRIRNRPPRLPRPRPRPEPHPRP	0.131
RRIRPRPPRLPRPRPRPWCHPRP	-0.563
RRIRQRPPRLPRPRPRPPPPPRP	0.822
RRIRRRPPRLPRPRPRPSHGPRP	0.145
RRIRDRPPRLPRPRPRPITRPRP	0.0173
RRIRWRPPRLPRPRPRPRANPRP	0.425
RRIRCRPPRLPRPRPRPYDPPRP	-0.914

Sequence	shrunken log2 fold change
RRIRARPPRLPRPRPRPDVKPRP	0.395
RRIRCRPPRLPRPRPRPDRGPRP	0.0229
RRIRGRPPRLPRPRPRPQNMPRP	-0.399
RRIRARPPRLPRPRPRPTFKPRP	0.341
RRIRQRPPRLPRPRPRPFYPPRP	0.0712
RRIRERPPRLPRPRPRPYFKPRP	-0.258
RRIRDRPPRLPRPRPRPIYSPRP	-0.15
RRIRLRPPRLPRPRPRPGSHPRP	0.0329
RRIRSRPPRLPRPRPRPQVYPRP	-0.276
RRIRTRPPRLPRPRPRPYLSPRP	0.0138
RRIRCRPPRLPRPRPRPKHTPRP	-0.0232
RRIRSRPPRLPRPRPRPKGEPRP	0.379
RRIRQRPPRLPRPRPRPLPMPRP	0.0747
RRIRSRPPRLPRPRPRPIISPRP	-0.472
RRIRDRPPRLPRPRPRPKAWPRP	0.107
RRIRYRPPRLPRPRPRPEPEPRP	0.0661
RRIRVRPPRLPRPRPRPKMRPRP	0.329
RRIRFRPPRLPRPRPRPDIGPRP	-0.0309
RRIRFRPPRLPRPRPRPGMLPRP	-0.169
RRIRQRPPRLPRPRPRPGDGPRP	0.415
RRIRARPPRLPRPRPRPLCRPRP	0.327
RRIRARPPRLPRPRPRPIWPPRP	0.353
RRIRGRPPRLPRPRPRPIQRPRP	0.0933
RRIRTRPPRLPRPRPRPQPSPRP	-0.095
RRIRDRPPRLPRPRPRPYCQPRP	-0.226

Reference: the supplement of paper PMC9112550, “Optimization of the antimicrobial peptide Bac7 by deep mutational scanning” (BMC Biology, 2022)
